The values that follow come from article PMC4737164, “DNA recognition for virus assembly through multiple sequence-independent interactions with a helix-turn-helix motif”.

Series [1] deals with T1, SF6 small terminase (GP1) DBD wild type (Bacillus phage SF6, UniProt P68928 1-68).
T1 sequence: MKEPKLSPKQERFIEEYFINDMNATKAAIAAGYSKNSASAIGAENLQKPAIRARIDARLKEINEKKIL
Put plainly: SPR; 300 mM KCl; above-average density; 20 mM HEPES, 150 mM KCl (300 mM in second ReDCaT), pH 7.0, +0.05% Tween 20 for SPR; ReDCaT 20 uM protein; AUC 20 C; NMR 20 mM MES, 150 mM KCl, pH 6.0, 25 C. The note with it: protein: recombinant; tags: C-terminal 3C site-His tag, cleaved; label: 5'-biotin strand 3; nicked 50 bp. Background: Surface plasmon resonance follows binding to a sensor surface in real time, without labels.

Series [2] deals with T1, SF6 small terminase (GP1) DBD wild type. Put plainly: AUC; 1:1; Kd stated in mM range; 20 mM HEPES, 150 mM KCl (300 mM in second ReDCaT), pH 7.0, +0.05% Tween 20 for SPR; ReDCaT 20 uM protein; AUC 20 C; NMR 20 mM MES, 150 mM KCl, pH 6.0, 25 C. The note with it: protein: recombinant; tags: C-terminal 3C site-His tag, cleaved; label: 5'-6-FAM in AUC; hairpin, 5 bp, 1 nt 5' overhang.

Series [3] has the same target. In words: SPR; McGhee-von Hippel, site size 3 bp; not saturated; 20 mM HEPES, 150 mM KCl (300 mM in second ReDCaT), pH 7.0, +0.05% Tween 20 for SPR; ReDCaT 20 uM protein; AUC 20 C; NMR 20 mM MES, 150 mM KCl, pH 6.0, 25 C. The note with it: protein: recombinant, tags: C-terminal 3C site-His tag, cleaved, label: 5'-biotin strand 1 (SPR), blunt.
Series [4] concerns the target T2, SF6 small terminase DBD K26A (Bacillus phage SF6, UniProt P68928 1-68, K26A).
T2 sequence: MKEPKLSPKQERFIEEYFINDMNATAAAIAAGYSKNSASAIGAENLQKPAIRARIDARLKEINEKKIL
Put plainly: SPR; McGhee-von Hippel, site size 3 bp; 20 mM HEPES, 150 mM KCl (300 mM in second ReDCaT), pH 7.0, +0.05% Tween 20 for SPR; ReDCaT 20 uM protein; AUC 20 C; NMR 20 mM MES, 150 mM KCl, pH 6.0, 25 C. The note with it: protein: recombinant; tags: C-terminal 3C site-His tag, cleaved; label: 5'-biotin strand 1 (SPR); none in NMR; blunt.

For series [5], the target named is T3, SF6 small terminase DBD K48A (Bacillus phage SF6, UniProt P68928 1-68, K48A).
T3 sequence: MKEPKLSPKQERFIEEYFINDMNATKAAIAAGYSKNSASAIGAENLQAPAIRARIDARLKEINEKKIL
Put plainly: SPR; up to 1500 uM protein; 20 mM HEPES, 150 mM KCl (300 mM in second ReDCaT), pH 7.0, +0.05% Tween 20 for SPR; ReDCaT 20 uM protein; AUC 20 C; NMR 20 mM MES, 150 mM KCl, pH 6.0, 25 C. The note with it: protein: recombinant; tags: C-terminal 3C site-His tag, cleaved; label: 5'-biotin strand 1 (SPR); none in NMR; blunt.

Series [6] has as its target T1, SF6 small terminase (GP1) DBD wild type. Put plainly: SPR; 300 mM KCl; increased, approaching F5; 20 mM HEPES, 150 mM KCl (300 mM in second ReDCaT), pH 7.0, +0.05% Tween 20 for SPR; ReDCaT 20 uM protein; AUC 20 C; NMR 20 mM MES, 150 mM KCl, pH 6.0, 25 C. Conditions: protein: recombinant; tags: C-terminal 3C site-His tag, cleaved; label: 5'-biotin strand 3; nicked.
Series [7] has the same target. In words: SPR; 150 mM KCl; superstoichiometric, low affinity; 20 mM HEPES, 150 mM KCl (300 mM in second ReDCaT), pH 7.0, +0.05% Tween 20 for SPR; ReDCaT 20 uM protein; AUC 20 C; NMR 20 mM MES, 150 mM KCl, pH 6.0, 25 C. The note with it: protein: recombinant; tags: C-terminal 3C site-His tag, cleaved; label: 5'-biotin strand 3; nicked 50 bp.
Series [8] has the same target. In words: SPR; 300 mM KCl; not significantly changed vs P6/F3; 20 mM HEPES, 150 mM KCl (300 mM in second ReDCaT), pH 7.0, +0.05% Tween 20 for SPR; ReDCaT 20 uM protein; AUC 20 C; NMR 20 mM MES, 150 mM KCl, pH 6.0, 25 C. The note with it: protein: recombinant; tags: C-terminal 3C site-His tag, cleaved; label: 5'-biotin strand 3; nicked 50 bp.
For series [9] the target is unchanged. Put plainly: AUC; 1 mM protein; 5 proteins per DNA, not saturated; 20 mM HEPES, 150 mM KCl (300 mM in second ReDCaT), pH 7.0, +0.05% Tween 20 for SPR; ReDCaT 20 uM protein; AUC 20 C; NMR 20 mM MES, 150 mM KCl, pH 6.0, 25 C. The note with it: protein: recombinant; tags: C-terminal 3C site-His tag, cleaved; label: 5'-TAMRA strand 1; blunt.
The target is the same in series [10]. Put plainly: AUC; 2-3 proteins per DNA, saturated; 20 mM HEPES, 150 mM KCl (300 mM in second ReDCaT), pH 7.0, +0.05% Tween 20 for SPR; ReDCaT 20 uM protein; AUC 20 C; NMR 20 mM MES, 150 mM KCl, pH 6.0, 25 C. The note with it: protein: recombinant; tags: C-terminal 3C site-His tag, cleaved; label: 3'-ATTO 647N strand 1; blunt.
For series [11] the target is unchanged. Put plainly: AUC; 1.5 mM protein; 1:1; Kd stated in mM range; 20 mM HEPES, 150 mM KCl (300 mM in second ReDCaT), pH 7.0, +0.05% Tween 20 for SPR; ReDCaT 20 uM protein; AUC 20 C; NMR 20 mM MES, 150 mM KCl, pH 6.0, 25 C. The note with it: protein: recombinant; tags: C-terminal 3C site-His tag, cleaved; label: 3'-ATTO 647N in AUC; hairpin, 5 bp, TTTT loop.

What is called Kd is the concentration at which binding is half-saturated.

B1: F10 (S10) (dsDNA)
DNA 1: TTGGGGCAGAAAACTTACAGAAACCAGCTA
DNA 2: TAGCTGGTTTCTGTAAGTTTTCTGCCCCAACCTACCCTACGTCCTCCTGC
DNA 3: GCAGGAGGACGTAGGGTAGG
Take B1: the binding result in series [1] is “binds”.

B2: 18C-hairpin (structured_DNA)
DNA 1: AGTAGG
DNA 2: CCTAC
modifications: 18C spacer joins 3' end of strand 1 to 5' end of strand 2
With B2, in series [2], the binding result was “binds”.

B3: 20-bp linker dsDNA (dsDNA)
DNA 1: GCAGGAGGACGTAGGGTAGG
DNA 2: CCTACCCTACGTCCTCCTGC
Take B3: the equilibrium dissociation constant (Kd) in [3] (none in NMR) was determined as 0.92 ± 0.01 mM; in series [4], 3.08 ± 0.03 mM. In [5], the binding result is on record as “no binding”.

B4: 30-bp linker dsDNA (dsDNA)
DNA 1: GAGACCTGGAACGCGATCATTGGCAGCACG
DNA 2: CGTGCTGCCAATGATCGCGTTCCAGGTCTC
In the case of B4, in series [3], the Kd was determined as 1.85 ± 0.02 mM.

B5: P8_F5 (dsDNA)
DNA 1: TTTCTATGGGAGAAGTAAACCTAAACTATCTCCAAA
DNA 2: TTTGGAGATAGTTTAGGTTTACTTCTCCCATAGAAACCTACCCTACGTCCTCCTGC
DNA 3: GCAGGAGGACGTAGGGTAGG
Consider B5, for which the binding result in series [6] is given as “binds”.

B6: P6 (boxA) (dsDNA)
DNA 1: ATTAGGTTTATATAAGGTTTTATCATTCAG
DNA 2: CTGAATGATAAAACCTTATATAAACCTAATCCTACCCTACGTCCTCCTGC
DNA 3: GCAGGAGGACGTAGGGTAGG
On to B6, for which the binding result in [7] is “binds”.

B7: P6_F3 (dsDNA)
DNA 1: ATTAGGTTTATATAAGGTTTTATACATCAG
DNA 2: CTGATGTATAAAACCTTATATAAACCTAATCCTACCCTACGTCCTCCTGC
DNA 3: GCAGGAGGACGTAGGGTAGG
As to B7, in [8], the binding result is given as “binds”.

B8: 30-bp AUC DNA (dsDNA)
DNA 1: ATAGAAAAAACCTCCTTAAAACTATATTTG
DNA 2: CAAATATAGTTTTAAGGAGGTTTTTTCTAT
As for B8, the binding result in [9] is reported as “binds”.

B9: 11-bp DNA (dsDNA)
DNA 1: GCCTACCCTAC
DNA 2: GTAGGGTAGGC
In the case of B9, the binding result in series [10] was “binds”. Regarding GTAGGTTTTCCTAC (structured_DNA) [14-nt hairpin], the binding result in [11] is listed as “binds”.

B10: F3 (S3) (dsDNA)
DNA 1: ATTAGGTTTATATAAGGTTTTAATTAGGTT
DNA 2: AACCTAATTAAAACCTTATATAAACCTAATCCTACCCTACGTCCTCCTGC
DNA 3: GCAGGAGGACGTAGGGTAGG
Turning to B10, the binding result in series [1] is “binds”.

B11: F5 (S5) (dsDNA)
DNA 1: TTTTATGAAAGAACCTAAACTATCTCCAAA
DNA 2: TTTGGAGATAGTTTAGGTTCTTTCATAAAACCTACCCTACGTCCTCCTGC
DNA 3: GCAGGAGGACGTAGGGTAGG
For B11, the binding result in [1] is reported as “binds”.
